Data published in US20140148355A1 (UNIVERSITY OF OSLO, published 2014).
Each block holds one binder with its values, some of them ahead of it. Square brackets hold non-standard residues; d marks the D form. Ends that are not written are not given here. Lys(Me) = CNCCCC[C@H](N)C(=O)O

Experiments:
[1] = target: histone H3 dimethylated on lysine 4 in Arabidopsis seedling chromatin (nucleosomes) (Arabidopsis, UniProt P59226 2-136); test: chromatin pull-down from Arabidopsis seedlings, quantified western blot
[2] = target: histone H3 trimethylated on lysine 4 in Arabidopsis seedling chromatin (nucleosomes) (Arabidopsis, UniProt P59226 2-136); test: as above
[3] = target: histone H3 monomethylated on lysine 4 in Arabidopsis seedling chromatin (nucleosomes) (Arabidopsis, UniProt P59226 2-136); test: as above
[4] = target: T1, ASHH2 CW domain (13C/15N labelled, cleaved from GST with thrombin) (Arabidopsis thaliana, UniProt Q2LAE1 850-937, limits assumed, 13C and 15N isotope labelled; binds one Zn2+ through Cys868, 871, 893, 904); test: NMR, 15N-1H HSQC chemical shift changes, peptide:CW about 1.1:1
T1 construct: domain: CW domain; Free CW domain used for NMR; The structure is deposited as PDB 2l7p (printed '217p')
T1 sequence (looked up): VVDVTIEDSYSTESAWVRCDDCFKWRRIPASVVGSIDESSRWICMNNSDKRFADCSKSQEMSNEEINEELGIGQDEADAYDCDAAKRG

bound chromatin relative to input chromatin [1]: 3.3 times of input material (2.5%) | bound chromatin relative to input chromatin [2]: 2.1 times of input material (2.5%) | bound chromatin relative to input chromatin [3]: 4.4 times of input material (2.5%)
B1: GST-ASHH2-CW (other, Arabidopsis thaliana, UniProt Q2LAE1 850-937, looked up)
chain: T1 sequence (looked up)
notes: domain: CW domain; Expressed in bacteria from pSXG (Eco RI/Bam HI); also called GST-CWASHH2; GST-tagged ASHH2 CW protein; not shown: glutathione-S-transferase (GST) tag encoded by the pSXG vector

binding result [4]: binds
B2: synthetic H3 peptide (residues 1-16) ARTK(me1)QTARKSTGGKAY (peptide)
peptide: ART[Lys(Me)]QTARKSTGGKAY
notes: Bought from CASLO and used for NMR at about 1.1:1 with the CW domain; also called histone H3K4me1 peptide (1-15); monomethylated H3K4 peptide
